Data from US20200362051A1 (CRESCENDO BIOLOGICS, published 2020).
One block for each binder: values may come before it.

Columns and labels:
[1] = target: T1, rhesus CD137-human IgG1 Fc tagged protein (rhesus; human, UniProt F6W5G6 24-186); assay: SPR (Biacore T200), single cycle kinetics, rhesus CD137-Fc captured on Protein G chip, 25 C, 1:1 fit; average ± SD
T1 construct: also called rhesus CD137Fc; rhesus CD137Fc recombinant protein
T1 sequence: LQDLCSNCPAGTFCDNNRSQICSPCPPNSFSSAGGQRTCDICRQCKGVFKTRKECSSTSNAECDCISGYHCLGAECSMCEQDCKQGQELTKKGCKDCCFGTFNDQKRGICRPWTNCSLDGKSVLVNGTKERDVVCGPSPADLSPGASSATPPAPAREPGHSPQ
Protocol: (§1) The Biacore T200 instrument was used to study the interaction between VH with human and rhesus CD137-human IgG1 Fc tagged protein by surface plasmon resonance (SPR). Single cycle kinetics assays used to evaluate the kinetics and affinity of the interaction. Experiments were performed at 25° C. in HBS-EP+ assay buffer with a flow rate of 30 μl/minute. A Protein G chip was used to capture the Fc tagged recombinant CD137 diluted to 2 μg/ml to one of the flow cells over 7 seconds. A second flow cell without any captured CD137 was used as the reference cell. A five point, three-fold dilution series of VH was made with a top concentration of 60 nM. The binding kinetics were followed by flowing these over the chip surface. The contact time for each of the binding steps was 180 seconds and the dissociation step was 1800 and 3600 seconds for rhesus and human CD137 respectively. After each run, the sensors were regenerated with glycine pH 1.5 to remove the captured CD137. The data was fitted to a 1:1 binding model after double reference subtraction using the Biacore T200 Evaluation software.

[2] = target: T2, cynomolgus PSMA expressed on CHO cells (cynomolgus, UniProt A0A2K5VNZ0 1-750); assay: FMAT, CHO cynomolgus PSMA cells, detection with CD137huFc and anti human Fc-Alexa Fluor-488; n=3
T2 construct: whole, on cells; also called CHO cynomolgus PSMA cells

[3] = target: T3, human PSMA expressed on cells (human, UniProt Q04609 1-750); assay: dual-binding cell ELISA: CHO-PSMA cells, bound construct detected with 1 nM CD137huFc and anti-huFc-HRP; average ± SD, n=3
T3 construct: Type II membrane glycoprotein; also called CHO human PSMA; CHO PSMA
Protocol: (§2) Dual target engagement of CD137 and PSMA by the bispecific molecules was assessed using an ELISA format and by flow cytometry with T cells. For ELISA, CHO-PSMA cells (20000/well) were seeded into 96 well plates (Greiner cat no. 353872) in Hams F12 supplemented with L-Glutamine+Blasticidin+Tetracycline and incubated at 37° C. with 5% CO₂ overnight. All subsequent steps were performed at room temperature and included washes with PBS between each step. Plates were blocked with PBS/0.1% BSA for 1 hour then serially diluted Humabody® VH were added and allowed to bind for 1 hour. Following removal of unbound VH, 1 nM CD137huFc (Acro Biosystems cat no. 41B-H5258) was added to the wells and incubated for 1 hour. A 1:3000 dilution of Anti-huFc-HRP (Jackson ImmunoResearch cat no. 109-035-098) was subsequently added for 1 hour and plates developed by addition of TMB. The reaction was stopped by addition of 0.5M sulphuric acid and plates read on BMG PheraStar at Absorbance 450 nm. […] Human CD8+ T cells pre-stimulated for 48 hours with PMA/ionomycin were washed with FACS buffer (PBS supplemented with 10% human serum and 0.05% sodium azide) by centrifugation. Serially diluted bispecific and trispecific Humabody VH construct were added to the cells for 1 hour on ice. Plates were washed with FACS buffer then detection mix containing 5 nM biotinylated-PSMA, 20 nM Streptavidin AlexaFluor488 and Live/Dead NearIR cell stain dilution added. Plates were incubated at 4° C. for 1 hour then washed twice with FACS buffer by centrifugation. Cells were fixed by addition 1× BD Cell fix solution, then washed twice with PBS by centrifugation and the cell pellets resuspended in PBS. Fluorescence was measured in the RL2-H channels (Live/Dead stain) and BL1-H channel (AlexaFluor488 stain) on the iQue Plus Screener (IntelliCyt). The bispecific and trispecific molecules were able to simultaneously bind human CD8+ T cells and PSMA protein.

[4] = target: T1, rhesus CD137-human IgG1 Fc tagged …; assay: SPR (Biacore T200), single cycle kinetics, rhesus CD137-Fc captured on Protein G chip, 25 C, 1:1 fit
Protocol: as §1

[5] = target: T4, human CD137 expressed on cells (human, UniProt Q07011 24-255); assay: dual-binding flow cytometry: pre-stimulated human CD8+ T cells, bound construct detected with 5 nM biotinylated-PSMA and streptavidin-AlexaFluor488; average ± SD, at least 6 donors
T4 construct: Whole entry with its signal peptide; also called 4-1BB; TNFRS9
Protocol: as §2, with “Serially diluted bispecific and trispecific Humabody VH construct were added to the cells for 1 hour on ice. Plates were washed with FACS buffer then detection mix containing 5 nM biotinylated-PSMA, 20 nM Streptavidin AlexaFluor488 and Live/Dead NearIR cell stain dilution added. Plates were incubated at 4° C. for 1 hour then washed twice with FACS buffer by centrifugation. Cells were fixed by addition 1× BD Cell fix solution, then washed twice with PBS by centrifugation and the cell pellets resuspended in PBS.” left out, “The bispecific and trispecific molecules were able to simultaneously bind human CD8+ T cells and PSMA protein.” left out

[6] = target: T5, human CD137-human Fc chimeric protein (Acro Biosystems cat no. 41B-H5258) (human, UniProt Q07011 24-186); assay: dual binding cell based ELISA: serially diluted VH on plated CHO human PSMA cells, then 1 nM CD137huFc, detection with anti human Fc-HRP, absorbance 450 nm
T5 construct: Bought protein; also called CD137-Fc tag protein; CD137huFc; not shown: human IgG1 Fc
Protocol: Association 1—Binding of the trispecific molecule to CD137Fc captured on protein G biosensors. Association 2—binding of Human serum Albumin, Association 3—Binding of PSMA in the presence of Human serum albumin to minimise HSA dissociation. […] Dual target engagement of CD137 and PSMA by the bispecific molecules was assessed using an ELISA format and by flow cytometry with T cells. For ELISA, CHO-PSMA cells (20000/well) were seeded into 96 well plates (Greiner cat no. 353872) in Hams F12 supplemented with L-Glutamine+Blasticidin+Tetracycline and incubated at 37° C. with 5% CO₂ overnight. All subsequent steps were performed at room temperature and included washes with PBS between each step. Plates were blocked with PBS/0.1% BSA for 1 hour then serially diluted Humabody® VH were added and allowed to bind for 1 hour. Following removal of unbound VH, 1 nM CD137huFc (Acro Biosystems cat no. 41B-H5258) was added to the wells and incubated for 1 hour. A 1:3000 dilution of Anti-huFc-HRP (Jackson ImmunoResearch cat no. 109-035-098) was subsequently added for 1 hour and plates developed by addition of TMB. The reaction was stopped by addition of 0.5M sulphuric acid and plates read on BMG PheraStar at Absorbance 450 nm. […] Fluorescence was measured in the RL2-H channels (Live/Dead stain) and BL1-H channel (AlexaFluor488 stain) on the iQue Plus Screener (IntelliCyt). […]

T3 sequence (Q04609 whole entry): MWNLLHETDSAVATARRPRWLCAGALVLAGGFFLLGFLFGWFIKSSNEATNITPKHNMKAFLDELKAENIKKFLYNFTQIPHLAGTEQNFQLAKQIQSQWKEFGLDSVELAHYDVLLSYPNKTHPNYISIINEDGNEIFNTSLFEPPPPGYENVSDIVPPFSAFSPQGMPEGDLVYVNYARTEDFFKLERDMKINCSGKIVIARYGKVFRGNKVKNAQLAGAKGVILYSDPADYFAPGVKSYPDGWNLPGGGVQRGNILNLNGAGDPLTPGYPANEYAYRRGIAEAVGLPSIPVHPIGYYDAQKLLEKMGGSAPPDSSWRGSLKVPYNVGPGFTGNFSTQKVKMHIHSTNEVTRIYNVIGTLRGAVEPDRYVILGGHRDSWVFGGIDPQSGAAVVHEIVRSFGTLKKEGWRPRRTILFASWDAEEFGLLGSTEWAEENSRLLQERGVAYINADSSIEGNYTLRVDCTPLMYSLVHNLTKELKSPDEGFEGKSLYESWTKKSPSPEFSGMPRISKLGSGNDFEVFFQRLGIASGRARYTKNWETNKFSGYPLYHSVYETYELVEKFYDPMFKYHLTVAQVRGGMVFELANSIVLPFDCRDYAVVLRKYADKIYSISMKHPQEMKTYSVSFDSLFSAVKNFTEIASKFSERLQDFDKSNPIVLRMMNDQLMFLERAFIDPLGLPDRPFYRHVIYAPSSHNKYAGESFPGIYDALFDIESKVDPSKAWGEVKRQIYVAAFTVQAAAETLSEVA
T4 sequence (Q07011 24-255 limits assumed): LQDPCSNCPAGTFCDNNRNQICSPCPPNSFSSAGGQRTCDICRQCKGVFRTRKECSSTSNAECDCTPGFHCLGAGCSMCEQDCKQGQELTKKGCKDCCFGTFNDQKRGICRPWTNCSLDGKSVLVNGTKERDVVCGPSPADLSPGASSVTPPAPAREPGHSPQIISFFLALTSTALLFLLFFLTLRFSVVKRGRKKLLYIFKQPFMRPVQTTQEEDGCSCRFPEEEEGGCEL

B2: 4.1-6GS-1.113-6GS-VH (HSA)-4GS (bispecific antibody)
chain: EVQLVESGGGVVQPGRSLRLSCAASGFSFSGYGMHWVRQAPGKGLEWVAYISYDGSNKYYADSVKGRFTISRDNSKNTLYLQMNSLRAEDTAVYYCAKDPAWGLRLGESSSYDFDIWGQGTMVTVSSGGGGSGGGGSGGGGSGGGGSGGGGSGGGGSEVQLVESGGGLVQPGGSLRLSCAASGFTLSNYWMNWVRQAPGKGLEWVANINQDGSERYYVDSVKGRFTISRDNAKNSLYLQMNSLRAEDTAVYYCARGGEGYGVDHYGLDVSGQGTTVTVSSGGGGSGGGGSGGGGSGGGGSGGGGSGGGGSEVQLVESGGGLVQPGRSLRLSCAASGFTFHHYAMHWVRQAPGKGLEWVSGISWNGNKITYADSVKGRFTISRDNAKNSLYLQMNSLRAEDTALYYCVRDSSLFIVGAPTFEHWGRGTLVTVSSGGGGSGGGGSGGGGSGGGGS
notes: Trispecific single-chain fusion of three VH domains (PSMA, CD137, human serum albumin)
- EC50 [2]: 0.57 nM
- EC50 [3]: 2.2 nM
- Kd [4]: 0.12 nM
- koff [4]: 5.2e-05 s⁻¹
- kon [4]: 440000 M⁻¹ s⁻¹

B3: 4.1-6GS-1.113 (bispecific antibody)
chain: EVQLVESGGGVVQPGRSLRLSCAASGFSFSGYGMHWVRQAPGKGLEWVAYISYDGSNKYYADSVKGRFTISRDNSKNTLYLQMNSLRAEDTAVYYCAKDPAWGLRLGESSSYDFDIWGQGTMVTVSSGGGGSGGGGSGGGGSGGGGSGGGGSGGGGSEVQLVESGGGLVQPGGSLRLSCAASGFTLSNYWMNWVRQAPGKGLEWVANINQDGSERYYVDSVKGRFTISRDNAKNSLYLQMNSLRAEDTAVYYCARGGEGYGVDHYGLDVSGQGTTVTVSS
notes: the tested construct may be that one
- EC50 [3]: 0.57 nM
- EC50 [5]: 1.3 nM

B5: 4.1-6GS-VH HSA 6GS-1.113-4GS (bispecific antibody)
chain: EVQLVESGGGVVQPGRSLRLSCAASGFSFSGYGMHWVRQAPGKGLEWVAYISYDGSNKYYADSVKGRFTISRDNSKNTLYLQMNSLRAEDTAVYYCAKDPAWGLRLGESSSYDFDIWGQGTMVTVSSGGGGSGGGGSGGGGSGGGGSGGGGSGGGGSEVQLVESGGGLVQPGRSLRLSCAASGFTFHHYAMHWVRQAPGKGLEWVSGISWNGNKITYADSVKGRFTISRDNAKNSLYLQMNSLRAEDTALYYCVRDSSLFIVGAPTFEHWGRGTLVTVSSGGGGSGGGGSGGGGSGGGGSGGGGSGGGGSEVQLVESGGGLVQPGGSLRLSCAASGFTLSNYWMNWVRQAPGKGLEWVANINQDGSERYYVDSVKGRFTISRDNAKNSLYLQMNSLRAEDTAVYYCARGGEGYGVDHYGLDVSGQGTTVTVSSGGGGSGGGGSGGGGSGGGGS
notes: Trispecific single-chain fusion of three VH domains (PSMA, human serum albumin, CD137)
- EC50 [3]: 1.1 nM

More lines, now with the values ahead:

- Kd [1]: 0.27 nM
- koff [1]: 0.00028 s⁻¹
- kon [1]: 1.1e+06 M⁻¹ s⁻¹
B1: Humabody 1.113 (VHH)
VHH: EVQLVESGGGLVQPGGSLRLSCAASGFTLSNYWMNWVRQAPGKGLEWVANINQDGSERYYVDSVKGRFTISRDNAKNSLYLQMNSLRAEDTAVYYCARGGEGYGVDHYGLDVSGQGTTVTVSS

- binding result [6]: no binding (tested: 1e-7 M (log10 -7))
B4: Humabody VH 4.1 (VHH)
VHH: EVQLVESGGGVVQPGRSLRLSCAASGFSFSGYGMHWVRQAPGKGLEWVAYISYDGSNKYYADSVKGRFTISRDNSKNTLYLQMNSLRAEDTAVYYCAKDPAWGLRLGESSSYDFDIWGQGTMVTVSS
